T1: mIgM (Mus musculus, UniProt P01872)
T1 sequence (P01872 1-454): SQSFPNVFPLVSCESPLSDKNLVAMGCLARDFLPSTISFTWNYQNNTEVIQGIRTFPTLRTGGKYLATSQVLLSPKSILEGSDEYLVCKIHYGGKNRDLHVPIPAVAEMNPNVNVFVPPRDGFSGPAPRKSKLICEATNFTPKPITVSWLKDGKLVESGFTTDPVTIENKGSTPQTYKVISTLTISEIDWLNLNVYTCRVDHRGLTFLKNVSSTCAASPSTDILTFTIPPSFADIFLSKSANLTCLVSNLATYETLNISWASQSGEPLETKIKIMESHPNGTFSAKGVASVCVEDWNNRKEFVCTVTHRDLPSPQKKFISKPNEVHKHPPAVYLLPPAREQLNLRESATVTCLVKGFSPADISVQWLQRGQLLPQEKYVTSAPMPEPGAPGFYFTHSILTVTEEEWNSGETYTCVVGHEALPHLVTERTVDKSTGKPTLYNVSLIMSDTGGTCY


Assays:
[1] = molecular target: T1, mIgM; assay: IgM binding ELISA (mouse IgM); details: for IgM Binding EC50: mIgM-coated ELISA, half-log dilution 10 μg/ml-0.01 μg/ml
Method: Reactivity of the DVD-Ig proteins with mIgM was determined by enzyme-linked immunosorbent assay (ELISA). Briefly, each well of an Ultra Cruz 96 well microtiter plate (Santa Cruz Biotechnology, Dallas, Tex.) was coated with mIgM at a concentration of 1 μg/ml in 100 μl of PBS. The plate was covered in plastic wrap and incubated overnight at 4° C. Each well of the plate was then washed 3× with 300 μl of PBST. After the final wash, 200 μl of blocking buffer (1% BSA in PBS) was added to each well and the plate incubated at RT for 2 hours. The plate was then washed as above. Rows B-H of the microtiter plate were filled with 100 μl of dilution buffer (1% BSA in PBST). The DVD-Ig proteins were then diluted to […] in dilution buffer and 147 μl of a DVD-Ig protein was added in duplicate to row A of a 96 well plate. For a ½ log dilution, 47 μl was transferred from row A to row B. The pipette tips were replaced with clean tips and 47 μl from row B was transferred to row C. The serial transfers were repeated as above until row G. To assess the binding of the secondary detection reagent to the coated IgM, the final transfer 47 μl was only transferred from G1-G10 to H1-H10 and wells H11 and H12 were left containing 100 μl of dilution buffer. To maintain a 100 μl assay volume, 47 μl was removed from wells H1-H10 and G11-G12 and discarded. After the serial dilution was completed, the plate was incubated for 1-2 hours at RT. The plate was washed as above and then 100 μl of horseradish peroxidase conjugated goat α-hIgG Fc specific, diluted 1:3,000 in dilution buffer, was added to each well. The plate was incubated for 1 hour at RT and then washed 4× as above. The plate was developed by adding 100 μl of 3′,3′,5′,5′-Tetramethylbenzidine (TMB) substrate solution to each well and incubating the plate in the dark for 10-15 minutes. The enzymatic reaction was stopped by adding 100 μl of 1M H2SO4 to each well. The plate was read at 450 nm on an EnVision 2102 multilabel reader (Perkin Elmer, Waltham, Mass.).
DVD-Ig proteins DVD3751-DVD3760 were characterized by IgM binding assay at half-log dilution starting at 10 μg/ml-0.01 μg/ml according to the method of Example 2.5.
IgM binding ELISA: Titrations of the DVD-Ig™ proteins (10 μg/ml to 0.01 μg/ml) were added to ELISA plates coated with murine IgM. Bound antibody was detected with biotinylated anti-human IgG and streptavidin-HRP. EC50 were calculated from the titration curve using Prism6.

[2] = system: AM14 WT B cells; assay: [3H]thymidine incorporation, BCR/TLR9 stimulation of AM14 WT B cells; type: cell-based, mouse; set-up: key to 3H incorporation AM14 WT, relative result: (X)-(XXX) indicates relative results; (XX): (X)-(XXX) indicates relative results; (X)-(XXX) indicates relative results; level of 3H incorporation / 3H incorporation AM14 WT: dose or concentration left out as unconfirmed; details: for 3H incorporation AM14 WT: 24 hours, then 6 hours pulse
Excerpt: (§1) The AM14 B cell receptor (BCR) transgenic mouse has been described previously (Sweet et al. (2010) Autoimmun 43(8): 607-18). Briefly, AM14 is a BCR comprising the AM14 heavy chain and the Vk8 light chain that recognizes murine IgG2a (mIgG2a) of the “a” allotype. Between 95-98% of B cells in a mouse positive for the AM14 heavy chain and Vk8 light chain express the AM14 BCR. To generate AM14 B cells that are deficient in TLR9, TLR7 or FcγRIIB, the AM14 and Vk8 genes were bred to the appropriate knock out mice.
(§2) Primary murine B cells were purified by positive selection using BD Imag™ CD45R/B220 magnetic particles (BD Biosciences, San Jose, Calif.). Briefly, B cells were cultured in RPMI containing, pencillin-streptomycin, β-mercaptoethanol, and 5% heat-inactivated fetal calf serum (FCS) in 96 well flat bottom plates at a density of 4×10^5 cells/well. For stimulation through the BCR and TLR9, B cells were treated with a titration of 0.3 μg/ml-0.03 μg/ml of PA4 or 5 μg/ml to 0.15 μg/ml of a DVD-Ig protein (DVD3751, DVD3752, DVD3754, DVD3755, DVD3759 and DVD3760), unless otherwise noted. Cells were also treated with 1 μg/ml 1826, an experimental ligand for TLR9, as a control. After 24 hours, the cells were pulsed for 6 hours with [3H]thymidine (Perkin Elmer, Waltham Mass.). Incorporation of [3H]thymidine was quantified via a liquid scintillation beta counter (Trilux 1450 MicroBeta, PerkinElmer) according to standard methods.
(§3) DVD-Ig proteins DVD3751-DVD3760 were characterized by ^3H incorporation at […] according to the method of Example 2.6.

[3] = system: AM14 TLR9−/− B cells; assay: [3H]thymidine incorporation, BCR/TLR9 stimulation of AM14 TLR9-/- B cells; type: cell-based, mouse; details: at 5 mg/ml; 24 hours, then 6 hours pulse
Excerpt: as §1, §2, §3

IgM binding by direct binding ELISA ([1]; Example 6, FIG. 8B)	IgM Binding EC50 [1] [µg/mL]	potency in IgM binding assay ([1]; among DVD3751-DVD3760)	Molecule	3H incorporation AM14 WT, relative result [2]	3H incorporation AM14 WT [2]	level of 3H incorporation ([2]; among DVD3751-DVD3760)	3H incorporation AM14 TLR9−/− [3]
intermediate IgM binding affinity	0.1167		DVD3754: DVD-Ig: VD1 DNA(PA4), SL linker, VD2 mIgM (B7.6); heavy SEQ ID NO 54, light 55 (antibody) heavy: EVQLVESGGGLVKPGGSLKLSCVASGFTFSTYAMSWVRQTPTKRLEWVATISRGGVSTYYPDTVKGRFTISRDNAKNTLYLQMSSLRSEDTAMYYCARPPTIVTTWFAYWGQGTLVTVSSASTKGPQVQLKESGPGLVKPSLTLSLTCTVSGFSLNGYGVIWVRQPPGKGLEWMGVIWGNGNTNYNSTLKSRLSISRDTSKSQVFLKMNNLQTEDTAMYFCARSENYYSSPGYFAYWGQGTLVTVSS light: DVVMTQTPLSLPVSLGDQASISCRSSQSLVHSNGNTYLHWYLQKPGQSPKLLIYKVSNRFSGVPDRFSGSGSGTDFTLKISRVEAEDLGAYFCSQSTHVPYTFGGPTRLEIKRTVAAPSVFIFPPNTVMTQSPTSMFISVGDRVTMNCKASQNVGSDVDWYQQKTGQSPKLLISGTSNRYTGVPDRFTGSGSGTDFTLTISNMQAEDLAVYYCLQYNYNPTFGAGTKLELKR	(XXX)	(35214)	highest level of ^3H incorporation	(1597)
	0.04116	highest potency	DVD3759: DVD-Ig: VD1 mIgM (B7.6), SL linker, VD2 DNA(PA4); heavy SEQ ID NO 64, light 65 (antibody) heavy: QVQLKESGPGLVKPSLTLSLTCTVSGFSLNGYGVIWVRQPPGKGLEWMGVIWGNGNTNYNSTLKSRLSISRDTSKSQVFLKMNNLQTEDTAMYFCARSENYYSSPGYFAYWGQGTLVTVSSASTKGPEVQLVESGGGLVKPGGSLKLSCVASGFTFSTYAMSWVRQTPTKRLEWVATISRGGVSTYYPDTVKGRFTISRDNAKNTLYLQMSSLRSEDTAMYYCARPPTIVTTWFAYWGQGTLVTVSS light: NTVMTQSPTSMFISVGDRVTMNCKASQNVGSDVDWYQQKTGQSPKLLISGTSNRYTGVPDRFTGSGSGTDFTLTISNMQAEDLAVYYCLQYNYNPTFGAGTKLELKRTVAAPSVFIFPPDVVMTQTPLSLPVSLGDQASISCRSSQSLVHSNGNTYLHWYLQKPGQSPKLLIYKVSNRFSGVPDRFSGSGSGTDFTLKISRVEAEDLGAYFCSQSTHVPYTFGGPTRLEIKR	(XX)	(18554)		(970)

Reference: patent US20150125397A1, “DUAL SPECIFIC BINDING PROTEINS DIRECTED AGAINST IMMUNE CELL RECEPTORS AND AUTOANTIGENS” (ABBVIE INC., priority 2013, published 2015)
